Blank lines part the entries; values can stand above or below the binder they belong to.
Columns and labels:
[1] = molecular target: T1, human PD-L1 (Programmed death ligand-1) (human, UniProt Q9NZQ7 19-290); assay: IHC on FFPE placenta, 0.9 µg/ml
T1 construct: whole, on cells; Endogenous protein; For IHC it was in formalin-fixed, paraffin-embedded tissue sections; for the Western blot it was in SDS-PAGE-fractionated cell lysates (45-55 kDa band); also called B7-H1; PDCD1L1
Protocol: Rabbit anti-human PD-L1 monoclonal antibodies SP263, J45H2L4 and J27H6L4 were applied onto formalin-fixed paraffin embedded (FFPE) tissue samples to assess the staining patterns of these antibodies. Tissue samples include placenta (positive control), stomach (negative control) and colon. Immunohistochemistry was performed on BenchMark Ultra (Ventana Medical System) using StdCC1 cell conditioning and standard Opt iView DAB detection protocol. Each primary antibody was incubated at 0.9 μg/ml for 16 min.

[2] = molecular target: T1, human PD-L1 (Programmed death ligand-1); assay: IHC on FFPE placenta, 0.11-28 µg/ml
[3] = molecular target: T2, peptide immunogen CGIQDTNSKKQSDTHLEET (human PD-L1 aa 272-290) (human); assay: ELISA, immobilized peptide immunogen (human PD-L1 aa272-290)
T2 construct: Synthetic peptide, immobilized in the ELISA; also called immobilized peptide immunogen; 19-amino acid peptide
T2 peptide: CGIQDTNSKKQSDTHLEET
Protocol: ELISA studies were performed with the SP263 antibody to evaluate binding to the immobilized peptide immunogen (human PD-L1 aa272-290).

T1 sequence (Q9NZQ7 19-290): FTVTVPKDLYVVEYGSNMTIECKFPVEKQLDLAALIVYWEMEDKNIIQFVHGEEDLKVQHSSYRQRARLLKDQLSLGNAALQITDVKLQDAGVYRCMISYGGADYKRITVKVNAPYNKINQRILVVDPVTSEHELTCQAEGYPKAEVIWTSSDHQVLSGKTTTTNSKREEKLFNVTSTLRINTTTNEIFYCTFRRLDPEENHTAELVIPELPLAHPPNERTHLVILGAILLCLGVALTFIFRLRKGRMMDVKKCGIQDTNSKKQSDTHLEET

B1: J45H2L4 rabbit anti-human PD-L1 monoclonal antibody (antibody, V domains shown)
VH: QSLEESGGRLVTPGTPLTLTCTASGFSLSSNAISWVRQAPGKGLEWIGTINSDSHIYSATWAKGRFTISKTSTAVDLKMTSPTTEDTATYFCAGRLFSSTNIWGPGTLVTVSS
VL: VMTQTSSPVSAAVGGTVTINCQASQSIYKDNWLSWFQQKPGQPPKLLIYLASTLASGVPSRFKGSGSGTQFTLTISDVVCDDAATYYCLGGESSSDDGIAFGGGTEVVVK
notes: the rabbit constant regions are not; also called anti-PD-L1 antibody clone J45H2L4
- binding result [1]: binds

- EC50 [3]: 15 pM
B2: SP263 rabbit anti-human PD-L1 monoclonal antibody (antibody, V domains shown)
VH: QSLEESGGRLVTPGTPLTLTCTASGFSLSNHAISWVRQAPGKGLEWIGTINSDTHTYYATWPKGRFTISKTSSTTVDLKMTSPTTEDTATYFCARRIFSSSNIWGPGTLVTVSS
VL: AIVMTQTSSPVSAVVGGTVAINCQASQSIYNNNWLSWFQQKPGQPPKLLIYLASTLASGVPSRFKGSGSGTQFTLTISDVVCDDAATYYCIGGESSNNDGIAFGGGTEVVVK
notes: the rabbit constant regions are not; also called SP263 anti-PD-L1 antibody
- binding result [2]: binds

Source: patent US20150346208A1 (SPRING BIOSCIENCE, published 2015)
